# Measured values published in patent US6461867.
# T1: soluble H-2K^b (K^bsol), empty heterodimer of truncated K^b heavy chain and murine β-2 microglobulin (murine), P01901
# T1 chain 1: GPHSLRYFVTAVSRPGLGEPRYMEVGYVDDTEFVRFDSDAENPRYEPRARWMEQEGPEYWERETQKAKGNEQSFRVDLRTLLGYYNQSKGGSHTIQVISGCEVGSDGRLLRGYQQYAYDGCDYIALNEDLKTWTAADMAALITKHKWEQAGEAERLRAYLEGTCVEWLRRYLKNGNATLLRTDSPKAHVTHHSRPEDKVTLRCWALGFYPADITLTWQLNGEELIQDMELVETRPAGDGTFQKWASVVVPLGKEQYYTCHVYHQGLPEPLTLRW
# T1 chain 2: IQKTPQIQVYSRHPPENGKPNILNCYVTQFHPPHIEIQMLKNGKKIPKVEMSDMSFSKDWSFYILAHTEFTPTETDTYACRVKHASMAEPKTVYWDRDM
# Target: T1, soluble H-2K^b (K^bsol), empty …
row,Binder,Kd [nM]
1,EQLESIINFEKLTEWTSSNVMEER (modifications not checked) [OVA-24 peptide],71000
2,LESIINFEKL (modifications not checked) [OVA-10N peptide],280
3,SIINFEKL (modifications not checked) [OVA-8 peptide (ovalbumin 257-264)],4.1
4,SIINFEKLT (modifications not checked) [OVA-9C peptide],11
5,SIINFEKLTE (modifications not checked) [OVA-10C peptide],14
